The assay has as its target T1, SINTBAD–mCherry (UniProt A7MCY6 1-615).
T1 construct: the legend says SINTBAD-mCherry; also called mCherry–SINTBAD; similar to NAP1 TBK1 adaptor; source: Sf9 insect cells, purified (GST-batch protocol); not shown: mCherry, C-terminal, kept
The experiment in a line: microscopy-based bead assay; Figs. 5b, 7d, 7f, Extended Data Fig. 9b: GST–4×Ub on glutathione beads; OPTN (mCherry-tagged or unlabeled) and GFP–TBK1 250 nM; NAP1, MBP–NAP1 or SINTBAD–mCherry 100 nM to 10 µM; unlabeled NDP52 250 nM where indicated; 25 mM Tris-HCl pH 7.4, 150 mM NaCl, 1 mM DTT; Fig. 5b without ATP, Fig. 7f with or without ATP/MgCl2; 30 min; confocal imaging. As to conditions: both partners purified.

T1 sequence (A7MCY6 whole entry): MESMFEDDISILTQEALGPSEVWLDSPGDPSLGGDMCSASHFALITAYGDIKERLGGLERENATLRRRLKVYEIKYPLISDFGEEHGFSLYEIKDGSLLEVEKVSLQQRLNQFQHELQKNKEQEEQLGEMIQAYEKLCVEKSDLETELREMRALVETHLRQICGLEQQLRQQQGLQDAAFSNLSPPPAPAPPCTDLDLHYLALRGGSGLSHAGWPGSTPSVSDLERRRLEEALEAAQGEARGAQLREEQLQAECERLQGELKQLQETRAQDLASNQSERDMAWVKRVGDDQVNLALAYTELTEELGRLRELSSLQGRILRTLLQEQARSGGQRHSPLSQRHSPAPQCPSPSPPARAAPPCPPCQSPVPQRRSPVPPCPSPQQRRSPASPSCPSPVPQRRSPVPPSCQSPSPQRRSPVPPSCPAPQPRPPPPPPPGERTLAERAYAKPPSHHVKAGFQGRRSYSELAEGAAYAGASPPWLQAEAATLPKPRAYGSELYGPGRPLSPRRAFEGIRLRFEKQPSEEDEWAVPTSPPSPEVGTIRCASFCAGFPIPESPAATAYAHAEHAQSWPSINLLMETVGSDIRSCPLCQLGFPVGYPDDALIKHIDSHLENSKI

B1: NDP52 (unlabeled) (natural protein, human, UniProt Q13137 1-446, looked up)
chain: MEETIKDPPTSAVLLDHCHFSQVIFNSVEKFYIPGGDVTCHYTFTQHFIPRRKDWIGIFRVGWKTTREYYTFMWVTLPIDLNNKSAKQQEVQFKAYYLPKDDEYYQFCYVDEDGVVRGASIPFQFRPENEEDILVVTTQGEVEEIEQHNKELCKENQELKDSCISLQKQNSDMQAELQKKQEELETLQSINKKLELKVKEQKDYWETELLQLKEQNQKMSSENEKMGIRVDQLQAQLSTQEKEMEKLVQGDQDKTEQLEQLKKENDHLFLSLTEQRKDQKKLEQTVEQMKQNETTAMKKQQELMDENFDLSKRLSENEIICNALQRQKERLEGENDLLKRENSRLLSYMGLDFNSLPYQVPTSDEGGARQNPGLAYGNPYSGIQESSSPSPLSIKKCPICKADDICDHTLEQQQMQPLCFNCPICDKIFPATEKQIFEDHVFCHSL
notes: NDP52 (CALCOCO2), human cDNA in a pGST2 vector with N-terminal GST tag and TEV site; Called 'unlabeled NDP52' in the bead assays; also called nuclear dot protein 52; CALCOCO2; source: E. coli Rosetta pLysS, purified (GST-batch protocol)
Take B1: the binding result is “binds”.

Source of the values: article PMC11564117, “Control of mitophagy initiation and progression by the TBK1 adaptors NAP1 and SINTBAD” (Nature Structural & Molecular Biology, 2024).
